Data published in PMC8405996, “A structurally preserved allosteric site in the MIF superfamily affects enzymatic activity and CD74 activation in D-dopachrome tautomerase” (The Journal of Biological Chemistry, 2021).
Where a chain is given by its changes, count along the chain named. Names and notes keep the numbering of the source.

B1: D-dopachrome tautomerase (MIF-2), wild type (enzyme, human, UniProt P30046 1-118, looked up)
chain: MPFLELDTNLPANRVPAGLEKRLCAAAASILGKPADRVNVTVRPGLAMALSGSTEPCAQLSISSIGVVGTAEDNRSHSAHFFEFLTKELALGQDRILIRFFPLESWQIGKIGTVMTFL
notes: human D-dopachrome tautomerase (MIF-2), monomer of 117 amino acids with the catalytic Pro1 at the N terminus (initiating Met removed); Homotrimer; no tag is named; also called wt-MIF-2; DDT; source: E. coli BL21-Gold (DE3), purified (Q-Sepharose, Superdex 75)
B2: MIF-2 P1G variant (enzyme, human, UniProt P30046 1-118, looked up)
chain: B1 chain with P2G
notes: human D-dopachrome tautomerase (MIF-2) with P1G; the initiating Met was found kept in this variant (not cleaved in E. coli), so the chain begins Met-Gly1; also called P1G MIF-2; source: E. coli BL21-Gold (DE3), purified (Q-Sepharose, Superdex 75)

Target: the molecule itself
Assay: crystal structure; hanging-drop vapor diffusion at 20 °C; diffraction data at 100 K; molecular replacement; trimer of MIF-2 in the crystal

Protein | stoichiometry N | binding result
B1 | 3 | 
B2 |  | binds
